± gives the standard deviation of the averaged measurements.
Test system: ATP
Test: switch fluorescence ratio, 500 uM ATP over buffer (Cy3 cluster intensity, sum of 5 cycles each) (fold (ratio)); higher = stronger signal-on switching upon ATP binding; sequences stand for … in TCGTCGGCAGCGTCAGATGTGTATAAGAGACAGTTTTTTTTTTTTTTTTTTTTTTTTT…TC
Details: aptamer strand: ATP DNA aptamer (quencher-CACCTGGGGGAGTATTGCGGAGGAAGG + anchor), 100 nM annealed; ATP concentration: 500 uM
Procedure, shortened: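 Five buffer/ATP imaging cycles were run on Cy3-labelled switching-strand clusters on a modified Illumina MiSeq flow-cell, with NaOH stripping and re-annealing between cycles. In each cycle, clusters annealed to 100 nM quencher-labelled ATP aptamer were imaged in selection buffer, then after 15 min with 500 uM ATP at 22 °C. Per cluster, the fluorescence ratio is summed target-cycle over summed buffer-cycle Cy3 intensity, averaged per switch-domain sequence. Only clusters within 100-1000 RFU were kept.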
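Note: ATP exposure 15 min at 22 °C before imaging.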

Sequence | switch fluorescence ratio
GTTTTCTTAG | 0.9737 ± 0.0031
GTTTTCTTAT | 0.998 ± 0.029
GTTTTGAGGG | 1.01 ± 0.016
GTTTTGGCGT | 0.984 ± 0.021
GTTTTGGCTG | 1.02 ± 0.036
GTTTTGGGGA | 0.996 ± 0.011
GTTTTGGGTA | 1.04 ± 0.041
GTTTTGTGTT | 0.992 ± 0.0047
GTTTTGTTCC | 1.019 ± 0.0041
GTTTTTAATG | 0.969 ± 0.011
GTTTTTACGA | 1.03 ± 0.027
GTTTTTACGT | 1.12 ± 0.14
GTTTTTAGGT | 0.98 ± 0.021
GTTTTTAGTT | 1.012 ± 0.0084
GTTTTTATGG | 0.997 ± 0.03
GTTTTTATTG | 0.992 ± 0.042
GTTTTTGACT | 0.964 ± 0.03
GTTTTTGATA | 0.998 ± 0.02
GTTTTTGGGC | 0.985 ± 0.026
GTTTTTGGTC | 0.974 ± 0.02
GTTTTTTACG | 0.998 ± 0.012
GTTTTTTAGC | 0.991 ± 0.069
GTTTTTTAGT | 0.988 ± 0.023

Sequence | switch fluorescence ratio
GTTTTTTATA | 0.995 ± 0.011
GTTTTTTATC | 1 ± 0.029
GTTTTTTGAG | 1 ± 0.046
GTTTTTTGTC | 1.03 ± 0.049
TAAAAACCAT | 1.01 ± 0.046
TAAAAACTGG | 0.975 ± 0.045
TAAAAACTGT | 1.02 ± 0.034
TAAAAAGAAA | 0.983 ± 0.043
TAAAAAGATT | 0.988 ± 0.019
TAAAAAGCTC | 1.01 ± 0.021
TAAAAAGGAA | 0.964 ± 0.064
TAAAAAGGGC | 0.992 ± 0.057
TAAAAATAGG | 1 ± 0.022
TAAAACCAGG | 1.21 ± 0.082
TAAAACCCTT | 1.04 ± 0.076
TAAAACGCGG | 1.07 ± 0.048
TAAAAGAAAA | 1 ± 0.062
TAAAAGCGGG | 1 ± 0.013
TAAAAGGAAT | 0.993 ± 0.018
TAAAAGGATT | 0.989 ± 0.042
TAAAAGGCAT | 1.03 ± 0.028
TAAAAGGGGG | 0.999 ± 0.034
TAAAAGTGGG | 1.009 ± 0.003

Sequence | switch fluorescence ratio
TAAAAGTTAT | 1.01 ± 0.02
TAAAATAAAT | 1.016 ± 0.0018
TAAAATGTTG | 1.03 ± 0.033
TAAACAGTTC | 1.05 ± 0.073
TAAACCGGGT | 1.05 ± 0.074
TAAACTACAT | 1.006 ± 0.005
TAAACTATGG | 1.02 ± 0.062
TAAAGAAATG | 0.99 ± 0.033
TAAAGAAGGA | 0.977 ± 0.042
TAAAGACGGG | 0.978 ± 0.013
TAAAGATAGG | 1.026 ± 0.0036
TAAAGCAGCT | 0.965 ± 0.04
TAAAGCAGGG | 1.01 ± 0.023
TAAAGCGAGC | 1.03 ± 0.023
TAAAGCTTCG | 1.27 ± 0.041
TAAAGGAAAT | 1.09 ± 0.11
TAAAGGCAAG | 1.02 ± 0.018
TAAAGGGGGG | 1.01 ± 0.047
TAAAGGGTTG | 1.02 ± 0.065
TAAAGGTACA | 1.03 ± 0.018
TAAAGGTAGG | 1.01 ± 0.041
TAAAGGTCGG | 0.967 ± 0.028
TAAAGGTGTT | 1.09 ± 0.095

Sequence | switch fluorescence ratio
TAAAGGTTGA | 1.01 ± 0.012
TAAAGTAAGT | 1.008 ± 0.01
TAAAGTAATT | 0.991 ± 0.039
TAAAGTATAA | 0.972 ± 0.026
TAAAGTCATA | 1.01 ± 0.022
TAAAGTGAGC | 1.028 ± 0.0051
TAAAGTGGGC | 1.04 ± 0.038
TAAAGTGGT | 0.986 ± 0.043
TAAAGTTACG | 1.06 ± 0.032
TAAATACGGG | 1.03 ± 0.016
TAAATACTAT | 1.01 ± 0.018
TAAATAGTTT | 0.993 ± 0.013
TAAATCGGTG | 0.977 ± 0.039
TAAATTATTC | 1.04 ± 0.037
TAAATTGATT | 1.02 ± 0.014
TAAATTGTCG | 0.994 ± 0.053
TAAATTTCGA | 1.04 ± 0.018
TAAATTTGAG | 0.991 ± 0.011
TAAATTTTCT | 1.06 ± 0.015
TAAATTTTGG | 1.008 ± 0.0096
TAACAATTTC | 1.01 ± 0.02
TAACACCTCT | 0.988 ± 0.068
TAACACGTCG | 0.9947 ± 0.0081

Sequence | switch fluorescence ratio
TAACAGGGAG | 1.012 ± 0.01
TAACAGGGGT | 1.31 ± 0.43
TAACAGGTGA | 2.17 ± 0.085
TAACAGTGGG | 1.02 ± 0.046
TAACATCTTC | 1.01 ± 0.079
TAACATGGCG | 0.959 ± 0.11
TAACATGTTC | 0.995 ± 0.031
TAACCAGTGG | 1.07 ± 0.021
TAACCCGATT | 0.997 ± 0.029
TAACCGAGAT | 1.01 ± 0.043
TAACCTTAGC | 1.29 ± 0.041
TAACGACCGC | 1.24 ± 0.03
TAACGCATCT | 1.149 ± 0.0052
TAACGGCCTC | 1.04 ± 0.023
TAACGGGAGG | 0.998 ± 0.017
TAACGGGTG | 1.08 ± 0.018
TAACGGTGTG | 0.962 ± 0.017
TAACGGTTTT | 1.01 ± 0.033
TAACGTGAGT | 0.988 ± 0.016
TAACTAGCGA | 1.027 ± 0.0041
TAACTCGAAC | 1.04 ± 0.023
TAACTTTTTT | 1.02 ± 0.042
TAAGAAAGGA | 0.997 ± 0.048

Sequence | switch fluorescence ratio
TAAGAAGATG | 0.9808 ± 0.0014
TAAGAAGGGG | 1.02 ± 0.023
TAAGAAGGGT | 0.991 ± 0.024
TAAGAATGGG | 0.9966 ± 0.0078
TAAGACGTTT | 1.0122 ± 0.00032
TAAGACTGAT | 1.016 ± 0.0019
TAAGAGCCGT | 1.02 ± 0.012
TAAGAGGCCA | 1.02 ± 0.017
TAAGAGGGCA | 1.01 ± 0.014
TAAGAGGGGG | 0.996 ± 0.052
TAAGAGGGTA | 0.974 ± 0.06
TAAGATGGCT | 1.11 ± 0.092
TAAGATTTGT | 0.99 ± 0.02
TAAGATTTTA | 1 ± 0.042
TAAGCAGCGA | 1.045 ± 0.0036
TAAGCCGCGT | 1.008 ± 0.0083
TAAGCGGGTA | 1.02 ± 0.016
TAAGCGGGTC | 1 ± 0.018
TAAGCTAAGG | 1.04 ± 0.016
TAAGCTGCCA | 1.02 ± 0.015
TAAGCTGTCA | 0.965 ± 0.064
TAAGCTTCAT | 1.04 ± 0.18
TAAGGAAAGA | 1.08 ± 0.12

Sequence | switch fluorescence ratio
TAAGGAAAGT | 0.991 ± 0.027
TAAGGAAGGA | 0.9919 ± 0.0054
TAAGGAAGGG | 1.004 ± 0.0075
TAAGGAATGA | 0.993 ± 0.019
TAAGGAGAGG | 1.01 ± 0.027
TAAGGAGGGG | 0.981 ± 0.024
TAAGGATGTT | 0.974 ± 0.026
TAAGGCCACG | 0.9975 ± 0.0099
TAAGGCCCGG | 1 ± 0.03
TAAGGCCGGG | 0.9809 ± 0.0045
TAAGGCGGGC | 0.988 ± 0.032
TAAGGCTCGG | 0.994 ± 0.02
TAAGGCTGGG | 0.962 ± 0.034
TAAGGGAAAC | 0.963 ± 0.013
TAAGGGAATG | 0.985 ± 0.061
TAAGGGACAC | 1.05 ± 0.017
TAAGGGACGT | 1.01 ± 0.034
TAAGGGATAG | 0.985 ± 0.043
TAAGGGCGTT | 0.994 ± 0.022
